The record followed here is paper PMC6961784.

In assay [1] the target is SNAPf-tagged EWS/FLI1 (human). The assay can be described thus: live-cell single-particle tracking.
Assay [2] deals with FUS LCD (UniProt P35637). Kind of assay: live-cell single-particle tracking.
UniProt P35637, sequence (P35637 2-214): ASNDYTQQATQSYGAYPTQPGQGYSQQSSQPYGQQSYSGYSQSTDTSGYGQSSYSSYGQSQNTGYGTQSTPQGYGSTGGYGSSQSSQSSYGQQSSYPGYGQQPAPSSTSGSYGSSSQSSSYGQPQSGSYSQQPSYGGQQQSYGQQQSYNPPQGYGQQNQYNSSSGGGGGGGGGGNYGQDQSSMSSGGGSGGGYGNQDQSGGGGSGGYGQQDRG

EWS LCD-Halo (domain or fragment) gave a residence time (RT) in assay [1] of 16 s. Turning to EWS(YS) LCD-Halo (domain or fragment), in assay [1], the residence time (RT) was 7 s. Substance “Sp1 LCD (from UniProt P08047 1-785) (domain or fragment)” displayed a residence time (RT) in assay [2] below 1 s.
